Data published in patent publication US20140105889A1 (published 2014).
Changes are numbered by the printed parent chain. In names and notes the source's numbering stands. One block for each binder: values may come before it.

What was measured:
human FcγRIIa(R) = target: T1, human FcγRIIa(R) (human, UniProt P12318 36-217); experiment: SPR (Biacore), antibody captured on chip, FcγR as analyte, HBS-EP+, 25°C;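 note: FcγR binding response divided by the amount of captured antibody, then expressed relative to the reference antibody ×100, with antibodies captured via immobilized Protein A, A/G, L or antigen peptides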
T1 construct: Analyte in solution on Biacore; also called FcγRIIa type R; FcgRIIaR
T1 chain: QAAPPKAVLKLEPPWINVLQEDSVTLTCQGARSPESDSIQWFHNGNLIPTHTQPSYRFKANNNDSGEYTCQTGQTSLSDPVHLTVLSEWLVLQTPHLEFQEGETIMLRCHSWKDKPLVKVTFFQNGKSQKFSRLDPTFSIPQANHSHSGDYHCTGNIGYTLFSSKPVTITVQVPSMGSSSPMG
Description: (§1) Interaction between each modified antibody and Fcγ receptor prepared in the manner described above was analyzed using the Biacore T100 (GE Healthcare), Biacore T200 (GE Healthcare), Biacore A100 or Biacore 4000. HBS-EP+ (GE Healthcare) was used for the running buffer, and measurements were carried out at 25° C. The chips used were chips in which antigen peptides, Protein A (Thermo Scientific), Protein A/G (Thermo Scientific) or Protein L (ACTIGEN or BioVision) were immobilized on the Series S Sensor Chip CM5 (GE Healthcare) or Series S Sensor Chip CM4 (GE Healthcare) by amine coupling, or chips in which preliminarily biotinylated antigen peptides were allowed to interact and then immobilized on the Series S Sensor Chip SA (certified) (GE Healthcare). The target antibodies were captured on these sensor chips, Fcγ receptor diluted with the running buffer was allowed to interact, followed by measurement of the amount of bound antibody. The amounts bound were compared between antibodies. However, since the amount of Fcγ receptor bound depends on the amount of captured antibody, the values used for comparison were first corrected by dividing the amount of Fcγ receptor bound by the captured amount of each antibody. Through reaction with 10 mM glycine-HCl at pH 1.5, the sensor chips were regenerated by washing off antibody captured on the sensor chips and used repeatedly.
(§2) Binding strength was evaluated according to the following method based on the results of analyzing the interaction with each FcγR. […] That value was then further multiplied by 100, and the resulting value was used as an indicator of relative binding activity to each FcγR.

human FcγRIa [1] = target: T2, human FcγRIa (human, UniProt P12314 16-292, limits assumed); experiment: as above
T2 construct: Analyte in solution on Biacore; also called FcgRIa; hFcgRIa
T2 sequence (P12314 16-292 limits assumed): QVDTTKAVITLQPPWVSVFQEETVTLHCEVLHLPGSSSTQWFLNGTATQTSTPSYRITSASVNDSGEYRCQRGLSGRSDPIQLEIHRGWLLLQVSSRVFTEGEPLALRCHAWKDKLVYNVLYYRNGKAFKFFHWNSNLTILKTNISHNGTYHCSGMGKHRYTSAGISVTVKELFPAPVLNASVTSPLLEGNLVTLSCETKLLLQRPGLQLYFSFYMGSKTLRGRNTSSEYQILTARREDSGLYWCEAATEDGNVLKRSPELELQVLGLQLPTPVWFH
Description: as §1, §2

human FcγRIIb [2] = target: T3, human FcγRIIb (human, UniProt P31994 43-217, limits assumed); experiment: SPR (Biacore); binding amount divided by that of control IL6R-BF648/IL6R-L, x100
T3 construct: also called FcgRIIb; FcγIIB
T3 sequence: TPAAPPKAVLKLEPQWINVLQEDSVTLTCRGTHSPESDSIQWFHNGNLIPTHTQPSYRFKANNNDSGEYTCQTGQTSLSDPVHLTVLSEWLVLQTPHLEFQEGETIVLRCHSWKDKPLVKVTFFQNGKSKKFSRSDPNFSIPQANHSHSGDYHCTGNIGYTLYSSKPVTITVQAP
Description: (§3) According to the following method, relative binding activities were calculated for the results of analyzing interactions with the respective FcγRs.

human FcγRIIa type H = target: T4, human FcγRIIa type H (human, UniProt P12318 36-217); experiment: as above
T4 construct: also called FcgRIIaH; FcγRIIa(H)
T4 sequence: T1 chain with R133H
Description: as §3

human FcγRIIIa type V = target: T5, human FcγRIIIa type V (human, UniProt P08637 17-208, limits assumed); experiment: as above
T5 construct: The assay used allotype V158; also called FcgRIIIaV; FcγRIIIa(V)
Description: as §3

human FcγRIa [3] = target: T6, human FcγRIa (human, UniProt P12314 16-292, limits assumed); experiment: as above
T6 construct: also called FcgRIa; CD64
T6 sequence (P12314 16-292 limits assumed): as the sequence (P12314 16-292 limits assumed) above
Description: as §3

human FcγRIIIa(F) = target: T7, human FcγRIIIa(F) (human, UniProt P08637 17-208, limits assumed); experiment: SPR (Biacore), antibody captured on Protein L, human FcgR as analyte, pH 7.4, 25 C; amount normalised to captured antibody
T7 construct: also called hFcgRIIIa(F); allotype F158
Description: Binding activity between the antibodies and human FcγRIa, FcγRIIa(H), FcγRIIa(R), FcγRIIb and FcγRIIIa(F) (hereinafter referred to as human FcγRs) was evaluated using the Biacore T100 or T200 (GE Healthcare). The antibodies being tested were captured by Protein L (ACTIGEN) that was immobilized in suitable amounts on the CM4 Sensor Chip (GE Healthcare) by amine coupling. Next, the diluted human FcγRs and a running buffer used as a blank were injected to allow interaction with the antibodies captured on the sensor chip. A buffer consisting of 20 mmol/L ACES, 150 mmol/L NaCl and 0.05% (w/v) Tween 20 (pH 7.4) was used for the running buffer, and this buffer was also used to dilute the human FcγRs. 10 mmol/L glycine-HCl (pH 1.5) was used to regenerate the sensor chip. All measurements were carried out at 25° C.
Binding activity to human FcγRs can be represented by the relative binding activity to human FcγRs. Antibody was captured by Protein L, and the amount of change in a sensorgram before and after the antibody was captured was defined as X1. Next, human FcγRs were allowed to interact with the antibody, and the value obtained by subtracting binding activity of human FcγRs represented as the amount of change in a sensorgram before and after allowing the running buffer to interact with antibody captured by Protein L (ΔA2) from the value obtained by multiplying by 1500 the value obtained by dividing the binding activity of human FcγRs represented as the amount of change in a sensorgram before and after that interaction (ΔA1) by the captured amount (X) of each antibody, was divided by the captured amount of each antibody (X) followed by multiplying by 1500 to obtain the binding activity of the human FcγRs (Y) (Equation 2).

human FcγRIIb [4] = target: T8, human FcγRIIb (human, UniProt P31994 43-217); experiment: SPR (Biacore); KD of parent IL6R-B3/IL6R-L for FcγRIIb divided by KD of the variant for FcγRIIb
T8 construct: also called FcγIIB
T8 sequence: T3 sequence
Excerpt: Furthermore, KD(IIaR)/KD(IIb) and KD(IIaH)/KD(IIb) in the table respectively represent the value obtained by dividing the KD value of each variant for FcγRIIaR by the KD value of each variant for FcγRIIb, and the value obtained by dividing the KD value of each variant for FcγRIIaH by the KD value of each variant for FcγRIIb.

[5] = target: T9, human FcγRIIIa type V (allotype V158) (human, UniProt P08637 17-208, limits assumed); experiment: SPR (Biacore), antibody captured on the chip, FcγR as analyte
T9 construct: the assay used allotype V158; also called FcγRIIIaV; FcγRIIIa(V)
T9 sequence (P08637 other isoform, or with tags, fused parts or gaps limits assumed): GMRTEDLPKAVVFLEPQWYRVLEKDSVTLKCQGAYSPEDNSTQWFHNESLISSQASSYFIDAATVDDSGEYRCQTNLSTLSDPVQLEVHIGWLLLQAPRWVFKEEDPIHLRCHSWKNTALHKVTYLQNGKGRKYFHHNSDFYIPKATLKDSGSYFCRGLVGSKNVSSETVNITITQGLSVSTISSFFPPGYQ

T7 sequence (P08637 other isoform, or with tags, fused parts or gaps limits assumed): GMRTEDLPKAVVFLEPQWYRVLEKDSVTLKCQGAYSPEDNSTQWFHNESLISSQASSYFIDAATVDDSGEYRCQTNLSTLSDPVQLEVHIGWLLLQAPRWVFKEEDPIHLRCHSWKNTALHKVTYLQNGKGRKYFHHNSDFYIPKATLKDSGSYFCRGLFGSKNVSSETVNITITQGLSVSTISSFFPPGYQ

B1: GpH7-B3 variant P331G / GpL16-k0 (antibody, human IgG1)
heavy: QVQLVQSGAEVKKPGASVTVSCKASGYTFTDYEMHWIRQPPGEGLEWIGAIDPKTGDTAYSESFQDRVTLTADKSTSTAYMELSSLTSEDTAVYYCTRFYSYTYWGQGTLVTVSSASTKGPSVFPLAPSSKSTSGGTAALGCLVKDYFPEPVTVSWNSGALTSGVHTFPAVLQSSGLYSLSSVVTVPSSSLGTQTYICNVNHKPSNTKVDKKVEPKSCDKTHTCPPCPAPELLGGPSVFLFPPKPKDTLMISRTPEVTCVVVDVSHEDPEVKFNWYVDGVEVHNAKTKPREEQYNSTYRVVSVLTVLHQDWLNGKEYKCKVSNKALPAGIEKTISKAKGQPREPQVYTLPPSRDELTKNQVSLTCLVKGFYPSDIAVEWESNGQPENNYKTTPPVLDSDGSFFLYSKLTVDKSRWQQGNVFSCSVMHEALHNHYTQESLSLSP
light: DIVMTQSPLSLPVTPGEPASISCQASESLVHSNRNTYLHWYLQKPGQSPQLLIYKVSNRFSGVPDRFSGSGSGTDFTLKISRVEAEDVGVYYCSQNTHVPPTFGQGTKVEIE
notes: Anti-glypican-3 IgG1; constant region B3 = G1d with K439E
relative binding activity (% of GpH7-B3/GpL16-k0) (human FcγRIIa(R)): 13%
relative binding activity (% of GpH7-B3/GpL16-k0) (human FcγRIa [1]): 88%

B2: IL6R-BP198/IL6R-L (antibody, human IgG1)
heavy: QVQLQESGPGLVKPSETLSLTCAVSGHSISHDHAWSWVRQPPGEGLEWIGFISYSGITNYNPSLQGRVTISRDNSKNTLYLQMNSLRAEDTAVYYCARSLARTTAMDYWGEGTLVTVSSASTKGPSVFPLAPSSKSTSGGTAALGCLVKDYFPEPVTVSWNSGALTSGVHTFPAVLQSSGLYSLSSVVTVPSSSLGTQTYICNVNHKPSNTKVDKKVEPKSCDKTHTCPPCPAPDYLGGDSVFLFPPKPKDTLMISRTPEVTCVVVDVSDEDGEVKFNWYVDGVEVHNAKTKPREEQYNSTYRVVSVLTVLHQDWLNGKEYKCKVSNAALPKPIEKTISKAKGQPREPQVYTLPPSRDELTKNQVSLTCLVKGFYPSDIAVEWESNGQPENNYKTTPPVLDSDGSFFLYSKLTVDKSRWQQGNVFSCSVMHEALHNHYTQESLSLSP
light: DIQMTQSPSSLSASVGDRVTITCRASQDISSYLNWYQQKPGKAPKLLIYYTSRLHSGVPSRFSGSGSGTDFTFTISSLQPEDIATYYCQQGNTLPYTFGQGTKVEIK
notes: The common L chain is IL6R-L; copies: 2 + 2
relative binding activity (human FcγRIIb [2]): 164 % of IL6R-BF648/IL6R-L
relative binding activity (human FcγRIIa type H): 188 % of IL6R-BF648/IL6R-L
relative binding activity (human FcγRIIIa type V): 157 % of IL6R-BF648/IL6R-L
relative binding activity (human FcγRIa [3]): 104 % of IL6R-BF648/IL6R-L

B3: IL6R-BP207/IL6R-L (antibody, human IgG1)
heavy: B2 heavy with Y236L, D270H, G273P, A328K, K332R
light: B2 light
notes: as for B2
relative binding activity (human FcγRIIb [2]): 124 % of IL6R-BF648/IL6R-L
relative binding activity (human FcγRIIa type H): 103 % of IL6R-BF648/IL6R-L
relative binding activity (human FcγRIIIa type V): 97 % of IL6R-BF648/IL6R-L
relative binding activity (human FcγRIa [3]): 74 % of IL6R-BF648/IL6R-L

B5: IL6R-BP203/IL6R-L (antibody, human IgG1)
heavy: B2 heavy with D235E, Y236L, G239D, D270H, A328K, K332R
light: B2 light
notes: as for B2
relative binding activity (human FcγRIIb [2]): 185 % of IL6R-BF648/IL6R-L
relative binding activity (human FcγRIIa type H): 255 % of IL6R-BF648/IL6R-L
relative binding activity (human FcγRIIIa type V): 88 % of IL6R-BF648/IL6R-L
relative binding activity (human FcγRIa [3]): 35 % of IL6R-BF648/IL6R-L

B7: IL6R-BP206/IL6R-L (antibody, human IgG1)
heavy: B2 heavy with Y236L, D270H, A328K, K332R
light: B2 light
notes: as for B2
relative binding activity (human FcγRIIb [2]): 168 % of IL6R-BF648/IL6R-L
relative binding activity (human FcγRIIa type H): 123 % of IL6R-BF648/IL6R-L
relative binding activity (human FcγRIIIa type V): 92 % of IL6R-BF648/IL6R-L
relative binding activity (human FcγRIa [3]): 101 % of IL6R-BF648/IL6R-L

B8: IL6R-BP199/IL6R-L (antibody)
heavy: B2 heavy with Y236L, D270H, G273P, A328D, K332R
light: B2 light
notes: copies: 2 + 2
relative binding activity (human FcγRIIb [2]): 144 % of IL6R-BF648/IL6R-L
relative binding activity (human FcγRIIa type H): 116 % of IL6R-BF648/IL6R-L
relative binding activity (human FcγRIIIa type V): 103 % of IL6R-BF648/IL6R-L
relative binding activity (human FcγRIa [3]): 112 % of IL6R-BF648/IL6R-L

B11: IL6R-BP188/IL6R-L (antibody, human IgG1)
heavy: B2 heavy with Y236L, G239D, A328K
light: B2 light
notes: Anti-human IL-6 receptor human IgG1 variant; copies: 2 + 2
KD(IIb) of the parent polypeptide/KD(IIb) of the altered polypeptide (human FcγRIIb [4]): 87.6
Kd [5]: 68 µM

B12: IL6R-BP199/IL6R-L (antibody, human IgG1)
heavy: B2 heavy with Y236L, D270H, G273P, A328D, K332R
light: B2 light
notes: Anti-human IL-6 receptor human IgG1 variant; uncertain; copies: 2 + 2
KD(IIb) of the parent polypeptide/KD(IIb) of the altered polypeptide (human FcγRIIb [4]): 6.3
Kd [5]: 61 µM

The remaining lines, values ahead:

relative binding activity (human FcγRIIb [2]): 188 % of IL6R-BF648/IL6R-L
relative binding activity (human FcγRIIa type H): 310 % of IL6R-BF648/IL6R-L
relative binding activity (human FcγRIIIa type V): 118 % of IL6R-BF648/IL6R-L
relative binding activity (human FcγRIa [3]): 81 % of IL6R-BF648/IL6R-L
B4: IL6R-BP208/IL6R-L (antibody, human IgG1)
heavy: B2 heavy with Y236L, G239D, A328K, K332R
light: B2 light
notes: as for B2

relative binding activity (human FcγRIIb [2]): 173 % of IL6R-BF648/IL6R-L
relative binding activity (human FcγRIIa type H): 135 % of IL6R-BF648/IL6R-L
relative binding activity (human FcγRIIIa type V): 122 % of IL6R-BF648/IL6R-L
relative binding activity (human FcγRIa [3]): 117 % of IL6R-BF648/IL6R-L
B6: IL6R-BP212/IL6R-L (antibody, human IgG1)
heavy: B2 heavy with Y236L, Y298D, A328K, K332R
light: B2 light
notes: as for B2

relative binding activity (human FcγRIIb [2]): 186 % of IL6R-BF648/IL6R-L
relative binding activity (human FcγRIIa type H): 267 % of IL6R-BF648/IL6R-L
relative binding activity (human FcγRIIIa type V): 153 % of IL6R-BF648/IL6R-L
relative binding activity (human FcγRIa [3]): 68 % of IL6R-BF648/IL6R-L
B9: IL6R-BP209/IL6R-L (antibody, human IgG1)
heavy: B2 heavy with D235E, Y236L, G239D, K332R
light: B2 light
notes: as for B2

BINDING AMOUNT (RU) (human FcγRIIIa(F)): 63.5 RU
B10: antibody containing VH3-IgG1-F890 for the heavy chain and L(WT)-CK for the light chain (antibody)
heavy: QVQLQESGPGLVKPSETLSLTCAVSGHSISHDHAWSWVRQPPGEGLEWIGFISYSGITNYNPSLQGRVTISRDNSKNTLYLQMNSLRAEDTAVYYCARSLARTTAMDYWGEGTLVTVSSASTKGPSVFPLAPSSKSTSGGTAALGCLVKDYFPEPVTVSWNSGALTSGVHTFPAVLQSSGLYSLSSVVTVPSSSLGTQTYICNVNHKPSNTKVDKKVEPKSCDKTHTCPPCPAPELLGGPSVFLFPPKPKDTLYISRTPEVTCVVVDVSHEDPEVKFNWYVDGVEVHNAKTKPREEQYNSTYRVVSVLTVLHQDWLNGKEYKCKVSNKALPAPIEKTISKAKGQPREPQVYTLPPSRDELTKNQVSLTCLVKGFYPSDIAVEWESNGQPENNYKTTPPVLDSDGSFFLYSKLTVDKSRWQQGNVFSCSVMHEALHYHVTQKSLSLSP
light: not shown
